Data from US20120316071A1.
Several values for one entry are separate records, joined by “and”; a condition that tells them apart may be missing. Equal values may be shown once. Values belong to the substance of their own block, whether it stands above or below them.

Key:
[1] = target: Recombinant Human DLL4 (delta-like protein 4) (human) (UniProt Q9NR61); assay: ECL multispot (MSD) binding assay; antigen spotted on plate, Fab in solution
[2] = target: Recombinant Human DLL4 (human) (UniProt Q9NR61); assay: ECL (MSD) multispot binding assay, DLL4 spotted on plate, Fab in solution
[3] = target: Recombinant Human DLL4 (human) (UniProt Q9NR61); assay: ECL (MSD) multispot binding assay, DLL4 signal over blank spot
[4] = target: rHuman P-Cadherin/Fc Chimera, CF (R&D Systems Cat#861-PC) (human) (UniProt P22223); assay: MSD ECL multispot assay, antigen spotted on plate, Fab in solution; blank spot of this row 504
[5] = target: rHuman P-Cadherin/Fc Chimera, CF (R&D Systems Cat#861-PC) (human) (UniProt P22223); assay: MSD ECL multispot assay, antigen spotted on plate, Fab in solution; blank spot of this row 348
[6] = target: rHuman Erythropoietin R/Fc Chimera, CF (R&D Systems Cat#963-ER) (human) (UniProt P19235); assay: MSD multispot ECL, antigen spotted on plate, Fab at 6 nM (blank spot 191)
[7] = target: rHuman ErbB2/Fc Chimera, CF (R&D Systems Cat#1129-ER) (human) (UniProt P04626); assay: as above
[8] = target: rHuman CD44/Fc Chimera, CF (R&D Systems Cat#3660-CD) (human) (UniProt P16070); assay: as above
[9] = target: rHuman EGF R/Fc Chimera, CF (R&D Systems Cat#344-ER) (human) (UniProt P00533); assay: as above
[10] = target: rHuman P-Cadherin/Fc Chimera, CF (R&D Systems Cat#861-PC) (human) (UniProt P22223); assay: as above
[11] = target: rHuman HGF R/c-MET/Fc Chimera, CF (R&D Systems Cat#358-MT/CF) (human) (UniProt P08581); assay: as above
[12] = target: rHuman IGF-1 sR, CF (R&D Systems Cat#391-GR) (human) (UniProt P08069); assay: as above
[13] = target: rHuman Notch-1/Fc Chimera, CF (R&D Systems Cat#3647-TK) (human) (UniProt P46531); assay: as above
[14] = target: rHuman Erythropoietin R/Fc Chimera, CF (R&D Systems Cat#963-ER) (human) (UniProt P19235); assay: MSD multispot ECL, antigen spotted on plate, Fab at 51 nM (blank spot 335)
[15] = target: rHuman ErbB2/Fc Chimera, CF (R&D Systems Cat#1129-ER) (human) (UniProt P04626); assay: as above
[16] = target: rHuman CD44/Fc Chimera, CF (R&D Systems Cat#3660-CD) (human) (UniProt P16070); assay: as above
[17] = target: rHuman EGF R/Fc Chimera, CF (R&D Systems Cat#344-ER) (human) (UniProt P00533); assay: as above
[18] = target: rHuman P-Cadherin/Fc Chimera, CF (R&D Systems Cat#861-PC) (human) (UniProt P22223); assay: as above
[19] = target: rHuman HGF R/c-MET/Fc Chimera, CF (R&D Systems Cat#358-MT/CF) (human) (UniProt P08581); assay: as above
[20] = target: rHuman IGF-1 sR, CF (R&D Systems Cat#391-GR) (human) (UniProt P08069); assay: as above
[21] = target: rHuman Notch-1/Fc Chimera, CF (R&D Systems Cat#3647-TK) (human) (UniProt P46531); assay: as above
[22] = target: rHuman Erythropoietin R/Fc Chimera, CF (R&D Systems Cat#963-ER) (human) (UniProt P19235); assay: MSD multispot ECL, antigen spotted on plate, Fab at 154 nM (blank spot 447)
[23] = target: rHuman ErbB2/Fc Chimera, CF (R&D Systems Cat#1129-ER) (human) (UniProt P04626); assay: as above
[24] = target: rHuman CD44/Fc Chimera, CF (R&D Systems Cat#3660-CD) (human) (UniProt P16070); assay: as above
[25] = target: rHuman EGF R/Fc Chimera, CF (R&D Systems Cat#344-ER) (human) (UniProt P00533); assay: as above
[26] = target: rHuman P-Cadherin/Fc Chimera, CF (R&D Systems Cat#861-PC) (human) (UniProt P22223); assay: as above
[27] = target: rHuman HGF R/c-MET/Fc Chimera, CF (R&D Systems Cat#358-MT/CF) (human) (UniProt P08581); assay: as above
[28] = target: rHuman IGF-1 sR, CF (R&D Systems Cat#391-GR) (human) (UniProt P08069); assay: as above
[29] = target: rHuman Notch-1/Fc Chimera, CF (R&D Systems Cat#3647-TK) (human) (UniProt P46531); assay: as above
[30] = target: rHuman Erythropoietin R/Fc Chimera, CF (R&D Systems Cat#963-ER) (human) (UniProt P19235); assay: MSD multispot ECL, antigen spotted on plate, Fab at 17 nM (blank spot 143)
[31] = target: rHuman ErbB2/Fc Chimera, CF (R&D Systems Cat#1129-ER) (human) (UniProt P04626); assay: as above
[32] = target: rHuman CD44/Fc Chimera, CF (R&D Systems Cat#3660-CD) (human) (UniProt P16070); assay: as above
[33] = target: rHuman EGF R/Fc Chimera, CF (R&D Systems Cat#344-ER) (human) (UniProt P00533); assay: as above
[34] = target: rHuman P-Cadherin/Fc Chimera, CF (R&D Systems Cat#861-PC) (human) (UniProt P22223); assay: as above
[35] = target: rHuman HGF R/c-MET/Fc Chimera, CF (R&D Systems Cat#358-MT/CF) (human) (UniProt P08581); assay: as above
[36] = target: rHuman IGF-1 sR, CF (R&D Systems Cat#391-GR) (human) (UniProt P08069); assay: as above
[37] = target: rHuman Notch-1/Fc Chimera, CF (R&D Systems Cat#3647-TK) (human) (UniProt P46531); assay: as above

Chain of rHuman Erythropoietin R/Fc Chimera, CF (R&D Systems Cat#963-ER) (human) (P19235 25-250, change not shown): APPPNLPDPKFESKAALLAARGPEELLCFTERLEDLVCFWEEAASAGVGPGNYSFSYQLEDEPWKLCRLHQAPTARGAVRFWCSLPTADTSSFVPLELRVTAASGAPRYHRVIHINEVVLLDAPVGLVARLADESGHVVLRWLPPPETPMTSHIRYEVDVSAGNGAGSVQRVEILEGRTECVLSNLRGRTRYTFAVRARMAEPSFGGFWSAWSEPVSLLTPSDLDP
Chain of rHuman HGF R/c-MET/Fc Chimera, CF (R&D Systems Cat#358-MT/CF) (human) (P08581 25-932, change not shown): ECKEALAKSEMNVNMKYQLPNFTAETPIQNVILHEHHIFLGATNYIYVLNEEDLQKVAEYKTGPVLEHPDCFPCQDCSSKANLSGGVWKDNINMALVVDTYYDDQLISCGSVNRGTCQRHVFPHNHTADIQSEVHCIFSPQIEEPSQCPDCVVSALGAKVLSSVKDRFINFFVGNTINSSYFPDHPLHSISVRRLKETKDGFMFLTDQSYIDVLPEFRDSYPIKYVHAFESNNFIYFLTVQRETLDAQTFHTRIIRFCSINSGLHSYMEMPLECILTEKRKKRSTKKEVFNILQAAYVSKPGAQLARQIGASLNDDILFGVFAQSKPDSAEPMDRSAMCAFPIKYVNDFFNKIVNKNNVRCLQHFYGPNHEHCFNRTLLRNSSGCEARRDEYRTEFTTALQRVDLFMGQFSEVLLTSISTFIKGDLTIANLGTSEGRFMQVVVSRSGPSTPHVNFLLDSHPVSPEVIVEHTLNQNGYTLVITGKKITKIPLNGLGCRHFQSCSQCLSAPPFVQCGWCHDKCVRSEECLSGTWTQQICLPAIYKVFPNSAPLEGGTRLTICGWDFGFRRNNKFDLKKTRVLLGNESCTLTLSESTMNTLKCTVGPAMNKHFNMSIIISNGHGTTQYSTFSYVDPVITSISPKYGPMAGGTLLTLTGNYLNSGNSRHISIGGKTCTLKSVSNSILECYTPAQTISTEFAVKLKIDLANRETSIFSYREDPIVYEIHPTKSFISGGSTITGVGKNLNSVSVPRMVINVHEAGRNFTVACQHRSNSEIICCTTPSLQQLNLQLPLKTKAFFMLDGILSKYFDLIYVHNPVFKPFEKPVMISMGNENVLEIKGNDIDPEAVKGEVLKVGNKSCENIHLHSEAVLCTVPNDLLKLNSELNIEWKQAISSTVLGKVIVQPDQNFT

ECL signal [1]: 418 and 587 | ECL signal [2]: 418 | Signal/Blank [3]: 1.7
Substance: Fab VH1-46_IGHD6-6*01_IGHJ1*01 S102A/S103P/S104F/H111F (APFF) & L6_IGKJ1*01 S92R

ECL signal [4]: 930 | ECL signal [5]: 786
Substance: Fab VH1-46_IGHD6-6*01_IGHJ1*01 S102A/S103P/S104F/H111F (APFF) & L6_IGKJ1*01 S92C

ECL signal [6]: 548 | ECL signal [7]: 873 | ECL signal [8]: 547 | ECL signal [9]: 742 | ECL signal [10]: 358 | ECL signal [11]: 831 | ECL signal [12]: 854 | ECL signal [13]: 464 | ECL signal [14]: 750 | ECL signal [15]: 1250 | ECL signal [16]: 651 | ECL signal [17]: 816 | ECL signal [18]: 854 | ECL signal [19]: 1040 | ECL signal [20]: 1050 | ECL signal [21]: 685 | ECL signal [22]: 1200 | ECL signal [23]: 1590 | ECL signal [24]: 960 | ECL signal [25]: 1400 | ECL signal [26]: 1730 | ECL signal [27]: 1520 | ECL signal [28]: 1400 | ECL signal [29]: 929 | ECL signal [30]: 620 | ECL signal [31]: 1030 | ECL signal [32]: 518 | ECL signal [33]: 805 | ECL signal [34]: 542 | ECL signal [35]: 914 | ECL signal [36]: 872 | ECL signal [37]: 558
Substance: Fab VH5-51_IGHD5-18*01>3_IGHJ4*01 & V3-4_IGLJ1*01
